The values below come from US20230065562A1, “DUAL CONTROLS FOR THERAPEUTIC CELL ACTIVATION OR ELIMINATION” (Bellicum Pharmaceuticals, Inc., priority 2015, published 2023).

B1: G402Y: modified iCasp9, G402Y (protein, UniProt P55211 1-416, looked up, variant G402Y)
chain: MDEADRRLLRRCRLRLVEELQVDQLWDALLSRELFRPHMIEDIQRAGSGSRRDQARQLIIDLETRGSQALPLFISCLEDTGQDMLASFLRTNRQAAKLSKPTLENLTPVVLRPEIRKPEVLRPETPRPVDIGSGGFGDVGALESLRGNADLAYILSMEPCGHCLIINNVNFCRESGLRTRTGSNIDCEKLRRRFSSLHFMVEVKGDLTAKKMVLALLELAQQDHGALDCCVVVILSHGCQASHLQFPGAVYGTDGCPVSVEKIVNIFNGTSCPSLGGKPKLFFIQACGGEQKDHGFEVASTSPEDESPGSNPEPDATPFQEGLRTFDQLDAISSLPTPSDIFVSYSTFPGFVSWRDPKSGSWYVETLDDIFEQWAHSEDLQSLLLRVANAVSVKGIYKQMPYCFNFLRKKLFFKTS
modifications: FKBP12-F36V fusion (iCasp9), CARD deleted
B2: C403P: modified iCasp9, C403P (protein, UniProt P55211 1-416, looked up, variant C403P)
chain: MDEADRRLLRRCRLRLVEELQVDQLWDALLSRELFRPHMIEDIQRAGSGSRRDQARQLIIDLETRGSQALPLFISCLEDTGQDMLASFLRTNRQAAKLSKPTLENLTPVVLRPEIRKPEVLRPETPRPVDIGSGGFGDVGALESLRGNADLAYILSMEPCGHCLIINNVNFCRESGLRTRTGSNIDCEKLRRRFSSLHFMVEVKGDLTAKKMVLALLELAQQDHGALDCCVVVILSHGCQASHLQFPGAVYGTDGCPVSVEKIVNIFNGTSCPSLGGKPKLFFIQACGGEQKDHGFEVASTSPEDESPGSNPEPDATPFQEGLRTFDQLDAISSLPTPSDIFVSYSTFPGFVSWRDPKSGSWYVETLDDIFEQWAHSEDLQSLLLRVANAVSVKGIYKQMPGPFNFLRKKLFFKTS
modifications: FKBP12-F36V fusion (iCasp9), CARD deleted
B3: D315A: modified iCasp9, D315A (auto-proteolysis site) (protein, UniProt P55211 1-416, looked up, variant D315A)
chain: MDEADRRLLRRCRLRLVEELQVDQLWDALLSRELFRPHMIEDIQRAGSGSRRDQARQLIIDLETRGSQALPLFISCLEDTGQDMLASFLRTNRQAAKLSKPTLENLTPVVLRPEIRKPEVLRPETPRPVDIGSGGFGDVGALESLRGNADLAYILSMEPCGHCLIINNVNFCRESGLRTRTGSNIDCEKLRRRFSSLHFMVEVKGDLTAKKMVLALLELAQQDHGALDCCVVVILSHGCQASHLQFPGAVYGTDGCPVSVEKIVNIFNGTSCPSLGGKPKLFFIQACGGEQKDHGFEVASTSPEDESPGSNPEPAATPFQEGLRTFDQLDAISSLPTPSDIFVSYSTFPGFVSWRDPKSGSWYVETLDDIFEQWAHSEDLQSLLLRVANAVSVKGIYKQMPGCFNFLRKKLFFKTS
modifications: FKBP12-F36V fusion (iCasp9), CARD deleted
B4: D327G: modified iCasp9, D327G (protein)
chain: VDGFGDVGALESLRGNADLAYILSMEPCGHCLIINNVNFCRESGLRTRTGSNIDCEKLRRRFSSLHFMVEVKGDLTAKKMVLALLELARQDHGALDCCVVVILSHGCQASHLQFPGAVYGTDGCPVSVEKIVNIFNGTSCPSLGGKPKLFFIQACGGEQKDHGFEVASTSPEDESPGSNPEPDATPFQEGLRTFGQLDAISSLPTPSDIFVSYSTFPGFVSWRDPKSGSWYVETLDDIFEQWAHSEDLQSLLLRVANAVSVKGIYKQMPGCFNFLRKKLFFKTSASRA
B5: L329G: modified iCasp9, L329G (protein)
chain: VDGFGDVGALESLRGNADLAYILSMEPCGHCLIINNVNFCRESGLRTRTGSNIDCEKLRRRFSSLHFMVEVKGDLTAKKMVLALLELARQDHGALDCCVVVILSHGCQASHLQFPGAVYGTDGCPVSVEKIVNIFNGTSCPSLGGKPKLFFIQACGGEQKDHGFEVASTSPEDESPGSNPEPDATPFQEGLRTFDQGDAISSLPTPSDIFVSYSTFPGFVSWRDPKSGSWYVETLDDIFEQWAHSEDLQSLLLRVANAVSVKGIYKQMPGCFNFLRKKLFFKTSASRA
B6: F326K: modified iCasp9, F326K (protein)
chain: VDGFGDVGALESLRGNADLAYILSMEPCGHCLIINNVNFCRESGLRTRTGSNIDCEKLRRRFSSLHFMVEVKGDLTAKKMVLALLELARQDHGALDCCVVVILSHGCQASHLQFPGAVYGTDGCPVSVEKIVNIFNGTSCPSLGGKPKLFFIQACGGEQKDHGFEVASTSPEDESPGSNPEPDATPFQEGLRTKDQLDAISSLPTPSDIFVSYSTFPGFVSWRDPKSGSWYVETLDDIFEQWAHSEDLQSLLLRVANAVSVKGIYKQMPGCFNFLRKKLFFKTSASRA
B7: A331K: modified iCasp9, A331K (protein)
chain: VDGFGDVGALESLRGNADLAYILSMEPCGHCLIINNVNFCRESGLRTRTGSNIDCEKLRRRFSSLHFMVEVKGDLTAKKMVLALLELARQDHGALDCCVVVILSHGCQASHLQFPGAVYGTDGCPVSVEKIVNIFNGTSCPSLGGKPKLFFIQACGGEQKDHGFEVASTSPEDESPGSNPEPDATPFQEGLRTFDQLDKISSLPTPSDIFVSYSTFPGFVSWRDPKSGSWYVETLDDIFEQWAHSEDLQSLLLRVANAVSVKGIYKQMPGCFNFLRKKLFFKTSASRA
B8: D327K: modified iCasp9, D327K (protein)
chain: VDGFGDVGALESLRGNADLAYILSMEPCGHCLIINNVNFCRESGLRTRTGSNIDCEKLRRRFSSLHFMVEVKGDLTAKKMVLALLELARQDHGALDCCVVVILSHGCQASHLQFPGAVYGTDGCPVSVEKIVNIFNGTSCPSLGGKPKLFFIQACGGEQKDHGFEVASTSPEDESPGSNPEPDATPFQEGLRTFKQLDAISSLPTPSDIFVSYSTFPGFVSWRDPKSGSWYVETLDDIFEQWAHSEDLQSLLLRVANAVSVKGIYKQMPGCFNFLRKKLFFKTSASRA
B9: Q328K: modified iCasp9, Q328K (protein)
chain: VDGFGDVGALESLRGNADLAYILSMEPCGHCLIINNVNFCRESGLRTRTGSNIDCEKLRRRFSSLHFMVEVKGDLTAKKMVLALLELARQDHGALDCCVVVILSHGCQASHLQFPGAVYGTDGCPVSVEKIVNIFNGTSCPSLGGKPKLFFIQACGGEQKDHGFEVASTSPEDESPGSNPEPDATPFQEGLRTFDKLDAISSLPTPSDIFVSYSTFPGFVSWRDPKSGSWYVETLDDIFEQWAHSEDLQSLLLRVANAVSVKGIYKQMPGCFNFLRKKLFFKTSASRA
B10: L329K: modified iCasp9, L329K (protein)
chain: VDGFGDVGALESLRGNADLAYILSMEPCGHCLIINNVNFCRESGLRTRTGSNIDCEKLRRRFSSLHFMVEVKGDLTAKKMVLALLELARQDHGALDCCVVVILSHGCQASHLQFPGAVYGTDGCPVSVEKIVNIFNGTSCPSLGGKPKLFFIQACGGEQKDHGFEVASTSPEDESPGSNPEPDATPFQEGLRTFDQKDAISSLPTPSDIFVSYSTFPGFVSWRDPKSGSWYVETLDDIFEQWAHSEDLQSLLLRVANAVSVKGIYKQMPGCFNFLRKKLFFKTSASRA
B11: D327R: modified iCasp9, D327R (protein)
chain: VDGFGDVGALESLRGNADLAYILSMEPCGHCLIINNVNFCRESGLRTRTGSNIDCEKLRRRFSSLHFMVEVKGDLTAKKMVLALLELARQDHGALDCCVVVILSHGCQASHLQFPGAVYGTDGCPVSVEKIVNIFNGTSCPSLGGKPKLFFIQACGGEQKDHGFEVASTSPEDESPGSNPEPDATPFQEGLRTFRQLDAISSLPTPSDIFVSYSTFPGFVSWRDPKSGSWYVETLDDIFEQWAHSEDLQSLLLRVANAVSVKGIYKQMPGCFNFLRKKLFFKTSASRA
B12: Q328R: modified iCasp9, Q328R (protein)
chain: VDGFGDVGALESLRGNADLAYILSMEPCGHCLIINNVNFCRESGLRTRTGSNIDCEKLRRRFSSLHFMVEVKGDLTAKKMVLALLELARQDHGALDCCVVVILSHGCQASHLQFPGAVYGTDGCPVSVEKIVNIFNGTSCPSLGGKPKLFFIQACGGEQKDHGFEVASTSPEDESPGSNPEPDATPFQEGLRTFDRLDAISSLPTPSDIFVSYSTFPGFVSWRDPKSGSWYVETLDDIFEQWAHSEDLQSLLLRVANAVSVKGIYKQMPGCFNFLRKKLFFKTSASRA

“Also recorded” adds a separate entry of the source.

One test has as its system HEK293T/16 cells. Put plainly: Secreted alkaline phosphatase (SEAP)-based surrogate killing assay of iCasp9 mutants. Type of test: cell-based, human. Particulars: SEAP assay without AP1903. On the procedure:
Early passage HEK293T/16 cells (ATCC, Manassas, Va.) were maintained in IMDM, GlutaMAX™ (Life Technologies, Carlsbad, Calif.) supplemented with 10% FBS, 100 U/mL penicillin, and 100 […] until transfection in a humidified, 37° C., 5% CO2/95% air atmosphere. Cells in logarithmic-phase growth were transiently transfected with 800 ng to 2 μg of expression plasmid encoding iCasp9 mutants and 500 ng of an expression plasmid encoding SRα promoter driven SEAP per million cells in 15-mL conical tubes. […] GeneJammer® Transfection Reagent at a ratio of 3 μl per ug of plasmid DNA was used to transiently transfect HEK293T/16 cells in the absence of antibiotics. 100 μl or 2 mL of the transfection mixture was added to each well in 96-well or 6-well plate, respectively.
Briefly, after 65° C. heat denaturation for 45 minutes to reduce background caused by endogenous (and serum-derived) alkaline phosphatases that are sensitive to heat, 5 μl of supernatants was added to 95 μl of PBS and added to 100 μl of substrate buffer, containing 1 μl of 100 mM 4-methylumbelliferyl phosphate (4-MUP; Sigma, St. Louis, Mo.) re-suspended in 2 M diethanolamine. Hydrolysis of 4-MUP by SEAP produces a fluorescent […] with excitation/emission (355/460 nm), which can be easily measured. Assays were performed in black opaque 96-well plates to minimize fluorescence leakage between wells. […] of the mixture was seeded onto each well of a 96-well plate. […] For the assay, 4-methylumbelliferyl phosphate substrate was hydrolyzed by SEAP to 4-methylumbelliferon, a metabolite that can be excited with 364 nm and detected with an emission filter of 448 nm. Since SEAP is used as a marker for cell viability, reduced SEAP reading corresponds with increased iCaspase-9 activities.
With B1, the “Basal Activity (relative to wild type/unmodified Caspase-9)” value was “catalytically inactive and dead”.
On to B2, for which the “Basal Activity (relative to wild type/unmodified Caspase-9)” value was “catalytically inactive and dead”.
For B3, the “Basal Activity (relative to wild type/unmodified Caspase-9)” value is “Decreased”.
Turning to B4, the “Basal Activity (relative to wild type/unmodified Caspase-9)” value was “did not lower basal activity; also recorded: Increased”.
With B5, the “Basal Activity (relative to wild type/unmodified Caspase-9)” value is reported as “did not lower basal activity; also recorded: Increased”.
As for B6, the “Basal Activity (relative to wild type/unmodified Caspase-9)” value is “did not lower basal activity; also recorded: Increased”.
B7: the “Basal Activity (relative to wild type/unmodified Caspase-9)” value is “did not lower basal activity; also recorded: Increased”.
Consider B8, for which the “Basal Activity (relative to wild type/unmodified Caspase-9)” value is listed as “did not lower basal activity; also recorded: Increased”.
For the molecule B9, the “Basal Activity (relative to wild type/unmodified Caspase-9)” value is on record as “did not lower basal activity; also recorded: Increased”.
With B10, the “Basal Activity (relative to wild type/unmodified Caspase-9)” value is on record as “did not lower basal activity; also recorded: Increased”.
B11: the “Basal Activity (relative to wild type/unmodified Caspase-9)” value was “did not lower basal activity; also recorded: Increased”.
For the molecule B12, the “Basal Activity (relative to wild type/unmodified Caspase-9)” value is given as “did not lower basal activity; also recorded: Increased”.

Still in this test, the particulars now being: SEAP assay without AP1903; listed as D315.
For the molecule B3, the “Basal Activity (relative to wild type/unmodified Caspase-9)” value is “reduced basal activity”.
